The DeepSol protein solubility set

Assay: soluble on expression in E. coli; label from the status in PepcDB or PDB records

| Sequence | soluble on expression in E. coli |
| --- | --- |
| MAHHHHHHMMSFTANSGNSPMSQMSPLSQPYTSPQMLPQSSLRPTAPPFTLSGTEDQPTAGAPIRKGGTDPTRYKTTICRNWEMGSCSFKGCTFAHGEEELRMPPRVERYKSSGFDTRRSLTAETPPLYPLNPLPHSGVGRIEHLLNMLYSEVLRERNRFVAHEEANQALEALLKKEQMQREETEVQLEAARWKLEQLRTTVHEASVEINTLLASSPANEELRDRVAMVTQKIASVFSSEDTAVGGGREDEERVMKLLSSLQNCQSTEDM | not soluble |
| MAHHHHHHMGYGGPRVEFYTANQYSNFAAAIDRENAARVRSILHRRNLPAEQEAQRQREAAFRAYERAQADEVARSHAEEAEALERRRVKDERAQRRLATKTRRRSLTAAEVASRRSRHACLCRLAEPRKYQEAMYGSGMIGGAMPHQSGRDGKLPTVGRNGAVYCAGVDRDRIVPSRPALEGTVPPWKGSYSTHHGPHKLDAQMAKEAAAYYCAHPAPQRSASEQDMRQQTLQSIAAEHSMAAQQDGADVGMADASGAKGRSSVADAVQWHRMGSDNVDDEAGSIFSHGSSNGPIAATGNMHLSTTSTKHSVQLHLSRYGGAMTAPRPWRPSKAASENLTLPELADRLVCIQMSKSVVR | not soluble |
| MNSEQQQTVFLCVSYLLSYPDEQWAESLPDCLDAIRSLDDETVRAPLLAFAEQINSIPARQRMEQYVETFDFGKKTNLYLTYMTNGEQRERGIELVALKARYQAAGFAVSDHELPDYLPLMLEWMAYADQEHTTALLADYAGHIREIGDRLAAAGSPYAQLFDALNHTFTQLGVTPLPKGGATAWPANFSG | not soluble |
| KDFVSDVLPTIAECYHHLGQEDELVEFLRACIDKKAGVSAELMLAQLVAHHESVGAAQELLTKQLLKNPTMKGFYRLIDYHIAEAEDGRAKDSLSTLQAMVGEQLKVKPHYRCRKCGFSTHSLYWHCPSCKGWGTIKPIRGLDGE | not soluble |
| MVLPPQNRLCNEVCLEAGQSPNSNELYLNSSELLKTELNNDINLCLVDFCERHNIDYRGMVNRLVTNNMYFFYIWGKYALSKA | not soluble |
| ILLPSKPRFIFQDVTVFNFNVSGNPSDLNTPVVQFNLSFRNPNANIRIYYDTLDVYAFYGNGSQQIIIPTPMPSTYQGHKEDSVWSPYIPVVPYNALYLDDQHHSRDGNMLMLHLDGRISWLLLGN | not soluble |
| MSASESDLAIVAEQLGREPRGVIEVSYHTPDGVPGVVMTTPKLDDGTPFPTLYYLTEPRLTAEASRLEVAHVMKWMTDRLHSDEELRQDYERAHEYFLAKRNALEDLGTDFSGGGMPDRVKCLHVLIAYALAEGPDHFRLGTEAVALAADHGGLRGTAIPQDWPTVESLGMSLDQFDFSHADVPGASK | not soluble |
| SNEGKELSTFCRKFEVPLRKALEKAGRLVDDPGRPRLLLTFISGRRVFVGVASASNSALWPMGIPRLKFPREAPSRSTLKLEEAWHQFIPREQWEQRLGDDMTGVDLGASPGGWTYQLVRRGMLVTAIDNGPMAESLMDTGLVQHLMADGFTWQPKQPVDWMVCDIVEKPARTTSLIETWLGEGLCREAVVNLKLPMKQRYAEVRRLLDRMEATFKARKIRVSIACKQLYHDREEVTCHLRRLDLK | not soluble |
| MAIFHLDFKIVKRSEGKSSVAKAAYHARCKITDERTGDTYDYSRRDDLYGHFILAPANAPEHIVKDSTSLWNEVERVERQNNGQTARYFDVSIPTELNNDEKKKLVLEYCQKNFVDKGMIADIAFHDLDSDNPHAHVMLTLKTIGPEGFGKKERSWNDRKMSVLWRESWASMANSYLATAGSSERIDHRSLQAQHEEALEKAAVALDNEEKALWLAKAAETNRPPMKRIHSAKWRSKAAQEQRAAEQTVRDAAKLEAVEVYKTFSELDLEIVVDVRSFTISVLPKPEEIVIPDFSTREKHQSIVSPVTSRRPAVKSYRAPNKATKVGMRGEGTPVLVAPEPNKSTKLKTSSSKKTRAMNRAPMHSRKQVKPHQNGLFKRLTTYMVCLFKEKFIWSKKKPIPVDAEHDKRIADNYVFDEIQGIYVSRAEYERRARFNNGTYSPAPDEVRRFPHRTKEEQHKVDDEPDYDPSSTPVPIISRKHLSLKPLEHHHHHH | not soluble |
| MGHHHHHHSHMRPRRPHQIADLFRPKDQIAYSDTSPFLILSEASLADLNSRLEKKVKATNFRPNIVISGCDVYAEDSWDELLIGDVELKRVMACSRCILTTVDPDTGVMSRKEPLETLKSYRQCDPSERKLYGKSPLFGQYFVLENPGTIKVGDPVYLLGQ | not soluble |
| MSSSTSSVESVEDESCSNECSASFTFDTNNNSRGNNQVNELAEETHMKLSITPTRESFSLSQLERIITIGKGTFGRVELARDKITGAHYALKVLNIRRVVDMRQTQHVHNEKRVLLQLKHPFIVKMYASEKDSNHLYMIMEFVPGGEMFSYLRASRSFSNSMARFYASEIVCALEYIHSLGIVYRDLKPENLMLSKEGHIKMADFGFAKELRDRTYTICGTPDYLAPESLARTGHNKGVDWWALGILIYEMMVGKPPFRGKTTSEIYDAIIEHKLKFPRSFNLAAKDLVKKLLEVDRTQRIGCMKNGTQDVKDHKWFEKVNWDDTLHLRVEPPIVPTLYHPGDTGNFDDYEEDTTGGPLCSQRDRDLFAEW | not soluble |
| MMLAGCGPIEPDYPNNKYTLTWYCTSDDGTCERVVELRRYDRASIQNNDLTIWDSQDPGGAIEALIVYSDSLPQHCDRIFYLVFFGHEIEEPRYCGNHYAFEIELSIPDEDPATSSRWVISAAPLD | not soluble |
| MSGELKDRLVARALEEGFVSCRVCRPWDVPEMPARLGAFVEAGYHGQMGWMAERMEWRGDPAALWPEARSVIMLAESYAPDTDPMEVVGQPDRGAISVYARGKDYHDLVKKRLKRLARWLIEAGGGEVKVFVDTAPVPEKALGQAAGLGWQGKHTNLVSRDWGNWAFLGSVFTTLDLPSDPVGRDNCGSCSACLTACPTDAFPAPYRLDARRCISYLTIEHKGPVDEELRAKLGNRIYGCDDCLAACPWNKFAVAASDLRYGARPELSAPALADLARLDDAGFREMFSGSPIKRIGRDRFVRNVLYAIGNSGLPALRPVAQDLAQDSDPTVADAARWAAAKLAMSR | not soluble |
| MATKTKTTEAPVLPLNQILAGDCIETMRSLPECSVDLIFADPPYNLQLRGDLHRPDNSRVDAVDDHWDQFSSFSVYDQFTREWLAAARRLLKPNGAIWVIGSYHNIFRVGAALQDQGFWILNDVVWRKSNPMPNFKGKRLTNAHETLIWASKQEASKYTFNYEALKALNEGVQMRSDWVIPICTGHERLKDEQGDKAHPTQKPEALLHRVMVATTNPGDVVLDPFFGTGTTGAVAKMLGRDFIGIEREESYRRIAAERLSRVRRYDASALEVSGSKRAEPRVPFGQLVERGMLRPGEELYSMNNRHKAKVRADGTLIGNDVKGSIHQVGAALEGAPSCNGWTYWCYKREGKMIPIDILRQQIRAEMEDPRPN | not soluble |
| ELGRLEDPAFTIKDAMIVATYPGATSKEVEEELTYPLEKEIRKLPYIDRITSTSSNGMSQIMVSMKMDYGPDELPQIWDEMRRKINDLQPTLPQGVQSLQIIDDFGDVYGVMLMLTGDDYDYVELKRYADHLRREIELVDGVGKVDIAGDQQEMLFVEISLDRLASLNLDMNVVSGLLNQQNNVVSAGEVMVNGESLVIRPSGTLNTVQALENLIIHGRDTGNLIRLKDVATITRGIQEKPGNMILFNGKKAINIGISFASGVNVVEVGERLNAELSSLESIKPAGLDMSYFYNQAQEVDDSVK | soluble |
| MAGLIPQSFIDDLLNRTDIVEVVSSRIQLKKTGKNYSACCPFHKEKTPSFTVSPDKQFYYCFGCGAGGNALGFVMDHDQLEFPQAVEELAKRAGMDVPREERGGRGHTPRQPTDSPLYPLLSAAAEFYKQALKSHPARKAAVNYLKGRGLTGEIARDFGLGFAPPGWDNLLKHLGGDNLQLKAMLDAGLLVENSDTGKRYDRFRDRVMFPIRDSRGRIIAFGGRVLGDDKPKYLNSPETPVFHKGQELYGLYEARQKNRDLDEIMVVEGYMDVIALAQQGIRNAVATLGTATSEEHIKRLFRLVPSILFCFDGDQAGRKAAWRALESVLPNLQDGKRVRFLFLPEGEDPDSLVRAEGEDAFRARITQQAQPLAEYFFQQLMLEADPATLEGKAHLATLAAPLLEKIPGNNLRLLMRQRLSEITGLSGENIGQLAHHSPPPSSMDHGASGVLDGDDYFAASAYYENEPSHAPFDAAPGYVEAQPRKSWNKDKKPWDGKKWDGKKKWDKGGRGDFKAPQRTPVSVESTTLNALRTLLHHPQLALKVDDAGTLAREQDTYAQLLVSLLEALQKNPRQSSMQLIARWHGTPQGRLLQALGEKEWLIVQENLEKQFFDTITKLSESQRFGEREERLRSVMQKSYSELTDEEKALLREHYSVAASSP | not soluble |
| MGSDKIHHHHHHMSIRIGISGWRYARWRGTFYPTGLAQRRELAYAGRCFPSVEINGSFYSLQRPESYQSWHDETPDDFVFAVKGPRFVTHMKRLRDCEQALANFFASGVLRLGEKLGPILWQLPPTLRFDDAVLDAFLSSLPRDTEAALALARKRDTTLMHGRTALSIDRKRPLRHALEMRHPSFCDPSCMKLLRKHKVGVVVADTAGKFPYLEDVTADFVYLRLHGDAQLYASGYSDHALDRWGERIAAWAAGGEPSDAQRVGPRASKRARRDVYCYFDNDMKVHAPFDARGLMQRLDLPTDCPAREEVV | not soluble |
| MHIHILGICGTFMGGVAMLARQLGHKVTGSDANVYPPMSTMLEAQGIEIIEGFDPVQLEPKPDLVVIGNAMSRGNPCVEYVLNHNLRYTSGPQWLQDFLLHDRWVIAVSGTHGKTTTSSMIAWVLEHCGYQPGFLVGGVLGNFGISARLGESMFFVVEADEYDSAFFDKRSKFVHYHPRTLVMNNLEFDHADIFDNLEAIKRQFHHLVRTVPGNGRILAPKQDEALADVLQRGCWSETEFSGEQGEWQAEKITADGSQFHVLLKGERVGQVNWSLVGDHNVSNALMAIAAARHVGVAPELACEALGLFVNTKRRLELKGEINGVTVYDDFAHHPTAIELTLGGLRNKVGDKKIIAVLEPRSATMKLGVHKETLAASLHSADSVYLYQPSNIPWSVEEVAKQCQQPAQVSANMDEFVAMIAKEAQAGDQILVMSNGGFEGIHGKLLAALQQK | not soluble |
| MSLDLPSRPPAPPEGVIGRRIRYADALEPEREEWFVAGTELAEVTAPEAPTPRIETPADGMIIALDPDIPARNQKLILRARPARAGMSFLLDGRPVGPAETPVKWPPEPGGHVLKLMDDRGRTLDLVKFQVRGMREGHHHHHH | soluble |
| MGSDKIHHHHHHMSENEQLSATYELLHADAASPVMISLPHSGTWIPADMRKHLLPTAVLANTDWFLPALYDFLPQTGFTTLINRVNRYVADPNRAVTLDLDHDYRSATIYQRNTFNHPLYARPLPPETLQSRLRTYYWPYRHALTMILKQKQAKFGHAYLIDLHSFAQYPHYPGIKPKTIVLGNDHDRTTSKIFRQTLSAAFVAHDFTVENNFPFRGGDITRYYGHQPNITAIQIELRYDQYIDQRSFREEVLTRHQTDLFCKAQDRLRFLRDFLKQLR | not soluble |
| PNFSHWGPPRIVEIFREPNVSLGISIVGGQTVIKRLKNGEELKGIFIKQVLEDSPAGKTNALKTGDKILEVSGVDLQNASHSEAVEAIKNAGNPVVFIVQSLSSTPRVIP | soluble |
| MLKEVPIKRRQSTKIYVGNVPVGGDAPIAVQSMTNTRTTDIEATIAQIKALERVGADIVRVSVPTMDAAEAFKVIKQQVNVPLVADIHFDYRIALKVAEYGVDCLRINPGNIGNEERIRAVVDCAKDKNIPIRIGVNAGSLERDLQEKYGEPTPQALLESALRHVEILDRFNFDQFKVSVKASDVFLAVESYRLLAKAIKQPIHLGITEAGGARAGSVKSAIGLGLLLSEGIGDTLRVSLAADPVDEVKVGFDILKSLRIRSRGINFVACPTCSRQEIDVIATVNALEQRLEDILTPMDVSIIGCVVNGPGEALVSDLGVTGSNKMSGFYLDGVRQKERFDNDKLIDQLEAKIRAKVAQQHHRIAIEQILEHHHHHH | not soluble |
